Reference: the supplement of paper PMC10567573

B1: ZNF449 (parent)
chain: CTHCSKSFRQRAGLIMHQVTHFRG
B2: TRIM63 (parent)
chain: QRITQEQEKKLSFIEALIQQYQEQ

Variants of: B1
Assay: protein stability index of a GFP-peptide fusion (GPS, HEK-293T) (PSI 1-6); higher = more stable
Settings: c terminus: a fixed tail appended
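Note: lentivirally expressed fusions sorted by FACS into six bins by GFP to DsRed ratio, PSI derived from sequencing read proportions per bin multiplied by bin number.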

Protein stability index: each site, then its substitutions
Q18: F 1.67; P 3.9; D 2.79; T 1.43; L 2.11; C 1.9; R 1.73; I 1.96; M 1.69; H 1.72; V 1.52; S 2.48; A 1.51; N 1.53; G 1.32; Y 3.18; E 2.09; K 1.69; W 1.29
H17: G 3.28; R 1.82; I 2.52; N 1.43; M 2.44; K 2.24; L 1.69; P 1.03; E 2.36; C 2.29; W 2.12; D 2.46; T 1.47
T2: G 1.5; R 2.18; V 1.98; K 2.25; I 2.7; E 2.4; D 1.86; H 1.92; Q 2.84; M 1.71; C 2.09; F 1.45; S 1.98; N 2.29; P 1.82; L 1.97
C1: R 1.93; T 1.5; S 1.91; A 2.17; W 3.78; V 1.64; L 2.48; I 1.74; N 1.72; Y 1.2; E 1.77; M 1.53; Q 3.23; H 1.96; D 2.01; K 2.66; F 1.22
Q10: R 1.6; D 3.41; L 1.59; P 1.76; K 2.58; C 2.43; W 2.77; I 1.67; H 2.13; A 2.51; M 1.86; N 2.15; E 2.61; S 1.99; Y 1.95; F 1.9; T 2.75; V 2.19
F8: S 2.43; R 2.1; E 2.19; N 2.04; L 1.79; C 2.74; V 1.07; A 1.91; M 1.38; P 1.81; Q 2.17; D 1.54; H 1.44; K 1.9; Y 3.03; T 1.7; I 2.15
M16: Q 3.57; V 2; K 3.55; T 2.78; P 1.65; Y 1.57; H 2.43; S 3.15; G 3.45; I 3.24; W 1.52; D 3.52; A 3.98; F 2.18; C 2.64; R 3.9; L 1.98; E 3.85; N 2.86
C4: W 3.01; T 2.18; V 1.58; R 2.11; H 2.39; S 1.33; I 2.58; N 2.17; Q 1.98; P 1.6; L 2.13; M 1.68; D 1.66; A 2.6; G 1.8; E 1.77; K 1.63
R9: G 2.18; N 2.77; S 3.04; W 2.07; P 2.29; Q 2.63; T 2.77; V 3.17; Y 1.79; M 2.9; D 3.85; L 1.96; E 2.15; A 2.58; K 2.81; H 1.87; I 1.94; C 2.33
S7: Y 2.44; L 2.69; I 1.73; K 2.62; T 1.08; P 1.59; D 2.18; N 2.58; R 1.31; W 1.78; M 1.57; C 2.98; F 2.49; V 2.22; E 2.29; Q 1.76; A 2.14
G13: P 1.23; V 2.58; E 3.16; Y 1.31; N 2.69; Q 2.87; M 2.12; I 1.96; H 1.4; W 1.87; S 1.52; L 1.68; R 2.65; K 2.06; C 1.07; F 1.95; A 2.47; T 2.36
K6: I 2.47; D 1.62; C 1.52; Y 2.62; Q 3.32; R 1.91; E 1.58; L 2.3; M 1.88; T 2.84; A 4.92
H3: Q 1.45; S 1.66; P 1.04; Y 2.28; L 2.08; M 2.42; E 2.11; F 2.09; K 2.22; T 2.09; N 2.18; D 3.44; R 1.77; W 1.38
V19: A 2.01
L14: Y 1.5; F 2.54; G 1.41; M 1.97; P 1.54; D 2.14; C 1.73; I 1.3; V 2.37; S 1.9; N 1.49; H 2; T 2.09; W 2.05; Q 2.02; K 2.05; R 2.01; E 1.95
I15: S 3.21; M 2.49; K 2.36; Q 2.76; A 2.39; T 2.3; R 2.66; V 3.12; H 2.2; E 3.59; N 1.73; F 2.4; P 1.22; W 2.9; G 1.94; Y 2.44; D 2.93
R11: T 1.69; C 3.42; K 1.82; G 2.28; Y 2.29; W 1.94; P 1.84; Q 1.8; F 2.46; H 1.87; A 2.28; M 3.23; L 3.44; N 1.8; S 1.48; V 2.23; E 2.79; D 1.58
A12: L 2.11; F 2.25; K 3.49; R 3.35; H 1.88; T 2.2; E 3.82; N 2.06; M 2.25; P 2.69; V 1.48; W 2.53; Y 1.9; I 2.36; C 2.29; Q 3.53; G 2.44; D 3.09
S5: F 1.7; R 1.7; M 1.56; T 1.49; Y 2.75; C 2.1; W 2.06; L 1.49; D 1.73; K 2.52; P 2.28; G 2.06; A 1.98; H 2.03; N 1.88; E 1.67

Variants of: B2
Assay: as above
Settings: c terminus: a fixed tail appended

Protein stability index, by site and new letter:
Q24: E 2.14; V 2.24; R 2.06; H 2.49; C 2.51; I 2.52; F 1.97; K 2.06; W 1.46; N 2.25; S 1.98; T 2.36; D 1.82; A 2.41; M 2.57; Y 1.66; L 2.16; P 2.68
E23: W 2.1; Q 2.18; T 1.94; L 2.65; I 1.54; N 1.9; P 1.95; V 2.34; S 2; K 2.4; Y 1.99; R 1.97; H 2.14; M 1.51
